Assay results: US20230295259A1 (Protagonist Therapeutics, Inc., priority 2020, published 2023)
Starred links: 1 amine or outer side, 2 acyl side, 3 side chain; linkers in the order of their positions; H or OH if unused. Non-standard residues stand in square brackets, D forms with d. Groups on a side chain read outwards from the residue. *: point of attachment. Gal = N6-(4-(galactopyranosyloxy)butanoyl) on the lysine side chain; C18 diacid = O=C(O)CCCCCCCCCCCCCCCCC(=O)*; Dip = N[C@H](C(=O)O)C(c1ccccc1)c1ccccc1; γGlu = O=C(O)[C@H](CCC(=O)[*:2])N[*:1]; Palmitoyl = CCCCCCCCCCCCCCCC(=O)*; β3hF = N[C@H](CC(=O)O)Cc1ccccc1; 4Amb = NCc1ccc(C(=O)O)cc1; Isovaleryl = CC(C)CC(=O)*; NMeA = CN[C@@H](C)C(=O)O; AEEA = NCCOCCOCC(=O)O; Acryloyl = C=CC(=O)*; Ahx = NCCCCCC(=O)O

Target: T1, human ferroportin (SLC40A1) fused in frame with GFP, stably expressed in HEK293 cells (human, UniProt Q9NP59 1-571)
T1 sequence (looked up): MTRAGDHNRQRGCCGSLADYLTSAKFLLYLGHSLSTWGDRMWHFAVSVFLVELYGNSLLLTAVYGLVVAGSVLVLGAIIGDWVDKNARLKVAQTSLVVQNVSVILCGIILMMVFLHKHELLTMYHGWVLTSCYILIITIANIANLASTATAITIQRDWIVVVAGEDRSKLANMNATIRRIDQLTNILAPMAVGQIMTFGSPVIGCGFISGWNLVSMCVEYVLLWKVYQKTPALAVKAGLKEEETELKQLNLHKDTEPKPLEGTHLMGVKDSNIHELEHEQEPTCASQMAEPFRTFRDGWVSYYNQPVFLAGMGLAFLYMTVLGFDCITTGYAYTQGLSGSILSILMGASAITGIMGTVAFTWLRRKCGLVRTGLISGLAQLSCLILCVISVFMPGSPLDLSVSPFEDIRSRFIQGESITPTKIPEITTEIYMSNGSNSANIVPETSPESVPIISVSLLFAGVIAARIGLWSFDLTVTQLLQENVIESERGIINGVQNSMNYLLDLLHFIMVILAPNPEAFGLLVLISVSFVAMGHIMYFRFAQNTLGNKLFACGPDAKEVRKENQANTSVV
Assay: cell-based or functional assay
Conditions: not given

| IC50: FPN internalisation | Molecule |
| --- | --- |
| 14.2 nM | XXTHXPCIXXXC (not fully specified; [Isovaleric Acid]-[Dap]-T-H-[Dpa]-P-C-I-[Lys(1PEG2_1PEG2_Ahx_C18_Diacid)]-[bhPhe]-[(D)Lys]-C-NH2) [Seq. No. 557] |
| 12.7 nM | Isovaleryl-ETHLPCI[dK][β3hF]K([Ahx-Palmitoyl])[dK]C-NH2 (not fully specified (bridges); cysteine pairing not given here) [Seq. No. 570] |
| 31.2 nM | Isovaleryl-ETH[Dip]PC[dK][β3hF]K([Ahx-Palmitoyl])[dK]C-NH2 (not fully specified (bridges); cysteine pairing not given here) [Seq. No. 571] |
| 2 nM | Isovaleryl-ETH[Dip]PCCK([AEEA-AEEA-Ahx-C18 diacid])[β3hF][dK]-NH2 (not fully specified (bridges); cysteine pairing not given here) [Seq. No. 577] |
| 11.8 nM | Isovaleryl-ETH[Dip]PCI[dK]LK([Ahx-Palmitoyl])[dK]C-NH2 (not fully specified (bridges); cysteine pairing not given here) [Seq. No. 568] |
| 15.4 nM | Isovaleryl-ETH[Dip]PCI[dK]K(Acryloyl)K([Ahx-Palmitoyl])[dK]C-NH2 (not fully specified (bridges); cysteine pairing not given here) [Seq. No. 556] |
| 18.7 nM | XEXHXPCIXXXC (not fully specified; [Isovaleric Acid]-E-[N-(hydroxyethyl)Gly]-H-[Dpa]-P-C-I-[Lys(1PEG2_1PEG2_Ahx_C18_Diacid)]-[bhPhe]-[(D)Lys]-C-NH2) [Seq. No. 565] |
| 31.8 nM | Isovaleryl-ETH[Dip]PC[4Amb][β3hF]K([Ahx-Palmitoyl])[dK]C-NH2 (not fully specified (bridges); cysteine pairing not given here) [Seq. No. 566] |
| 400 nM | Isovaleryl-ETH[Dip]PC[dK](Gal)K([AEEA-AEEA-Ahx-C18 diacid])[β3hF][dK]C-NH2 (not fully specified (bridges); cysteine pairing not given here) [Seq. No. 560] |
| 50.2 nM | Isovaleryl-ETH[Dip]LCI[dK][β3hF]K([Ahx-Palmitoyl])[dK]C-NH2 (not fully specified (bridges); cysteine pairing not given here) [Seq. No. 569] |
| 10.2 nM | Isovaleryl-ETH[Dip]ACI[dK][β3hF]K([Ahx-Palmitoyl])[dK]C-NH2 (not fully specified (bridges); cysteine pairing not given here) [Seq. No. 574] |
| 8.47 nM | Isovaleryl-ETH[Dip]PCI[dK]AK([Ahx-Palmitoyl])[dK]C-NH2 (not fully specified (bridges); cysteine pairing not given here) [Seq. No. 572] |
| 103 nM | Isovaleryl-ETH[Dip]K(Acryloyl)CI[dK][β3hF]K([Ahx-Palmitoyl])[dK]C-NH2 (not fully specified (bridges); cysteine pairing not given here) [Seq. No. 554] |
| 30.8 nM | Isovaleryl-ETH[Dip][NMeA]CI[dK][β3hF]K([Ahx-Palmitoyl])[dK]C-NH2 (not fully specified (bridges); cysteine pairing not given here) [Seq. No. 567] |
| 18.4 nM | {Cyclohexanoic Acid}-ETH[Dip]PCK([AEEA-AEEA-γGlu-C18 diacid])[β3hF][dK]C-NH2 (not fully specified (bridges); cysteine pairing not given here) [Seq. No. 562] |
| 39.2 nM | Isovaleryl-ETH[Dip]SCIK([AEEA-AEEA-γGlu-C18 diacid])[β3hF][dK]C-NH2 (not fully specified (bridges); cysteine pairing not given here) [Seq. No. 558] |
| 1190 nM | XETHXPCIXXXC (not fully specified; [Isovaleric Acid]-E-T-H-[Dpa]-P-C-I-[(D)Lys]-[bhPhe]-[Lys(1PEG2_1PEG2_IsoGlu_C18_Diacid)]-C-OH) [Seq. No. 563] |
| 385 nM | Isovaleryl-ETHK(Acryloyl)PCI[dK][β3hF]K([Ahx-Palmitoyl])[dK]C-NH2 (not fully specified (bridges); cysteine pairing not given here) [Seq. No. 553] |
| 17.4 nM | Isovaleryl-ETH[Dip]PC[dK](Acryloyl)[dK][β3hF]K([Ahx-Palmitoyl])[dK]C-NH2 (not fully specified (bridges); cysteine pairing not given here) [Seq. No. 555] |
| 6.47 nM | Isovaleryl-ETH[Dip]PCA[dK][β3hF]K([Ahx-Palmitoyl])[dK]C-NH2 (not fully specified (bridges); cysteine pairing not given here) [Seq. No. 573] |
| 687 nM | XETXXPCIXXXC (not fully specified; [Isovaleric Acid]-E-T-[N-(Imidazolethyl)Gly]-[Dpa]-P-C-I-[Lys(1PEG2_1PEG2_Ahx_C18_Diacid)]-[bhPhe]-[(D)Lys]-C-NH2) [Seq. No. 564] |
| 17.9 nM | Isovaleryl-ETH[Dip]PCK(Gal)K([AEEA-AEEA-Ahx-C18 diacid])[β3hF][dK]C-NH2 (not fully specified (bridges); cysteine pairing not given here) [Seq. No. 561] |
| 83 nM | Isovaleryl-ETHAPCI[dK][β3hF]K([Ahx-Palmitoyl])[dK]C-NH2 (not fully specified (bridges); cysteine pairing not given here) [Seq. No. 575] |

Tested on: LAD2 cells
Assay: not given
Assay type: cell-based, human
Conditions: not given
Source text: In anaphylactoid reactions, the main mechanism involves the direct stimulation of mast cells or basophils, leading to the release of anaphylactic mediators such as histamine and β-hexosaminidase. A recent study by McNeil et al. (McNeil B D et al., 2015) reported that MrgprX2, a specific membrane receptor on human mast cells, induces anaphylactoid reactions. The LAD2 (Laboratory of Allergic Diseases 2) human mast cell line, derived from human mast cell sarcoma/leukemia (Kirshenbaum et al., 2003), is commonly employed to study anaphylactoid reactions, because its biological properties are identical to those of primary human mast cells, including the overexpression of the MrgprX2 receptor and sensitivity towards degranulating peptides (Kulka et al., 2008). The release of anaphylactic mediators such as f-hexosaminidase, is assessed by fluorometric quantification.
On the day of the assay, serial dilutions of compounds were added to LAD2 cells plated at 20000 cells/well in a 96-well plate. After incubation for 30 minutes, the amount of β-hexosaminidase released into the supernatants and in cell lysates was quantified using the fluorogenic substrate 4-methylumbelliferyl-N-acetyl-b-D-glucosaminide. Dose-response curves were generated by plotting the % of β-hexosaminidase release (y-axis) against the concentrations of peptides tested (x-axis). […]. (Table 2D).

| EC50 | Molecule |
| --- | --- |
| > 100 µM | CC[C@H](C)[C@@H]1NC(=O)[C@@H](NC(=O)[C@@H]2CCCN2C(=O)[C@@H](NC(=O)[C@H](Cc2cnc[nH]2)NC(=O)[C@@H](NC(=O)[C@H](CCC(=O)O)NC(=O)CC(C)C)[C@@H](C)O)C(c2ccccc2)c2ccccc2)CSSCC(C(N)=O)NC(=O)[C@@H](CCCCNC(=O)CCOCCOCCOCCOCCOCCOCCOCCOCCOCCOCCOCCOC)NC(=O)C[C@H](Cc2ccccc2)NC(=O)[C@H](CCCCNC(=O)COCCOCCNC(=O)COCCOCCNC(=O)CCCCCNC(=O)CCCCCCCCCCCCCCCCC(C)=O)NC1=O (stereo partly shown) [Compound 255, Isovaleric Acid-E-T-H-[Dpa]-P—C—I-[Lys(1PEG2_1PEG2_Ahx_C18_Diacid)]-[bhPhe]-[(D)Lys(PEG11_OMe)]—C—NH2] |

Same assay, conditions: LAD2 mast cells, β-hexosaminidase release, 30 minutes incubation; read-out: EC50: LAD2

| Molecule | EC50 |
| --- | --- |
| Isovaleric Acid-E-T-H-[Dpa]-P—C—I-[Lys(1PEG2_1PEG2_IsoGlu_C18_Diacid)]-[bhPhe]-[(D)Lys]-[Pen]-NH2 [Compound 281] | > 100 µM |
| Isovaleric Acid-E-T-H—F—P—C—I-[Lys(1PEG2_1PEG2_IsoGlu_C18_Diacid)]-F-E-P—R—S—K-G-C—NH2 [Compound 206] | > 100 µM |
| Isovaleric Acid-E-T-H—F—P—C—I-[Lys(IsoGlu_Palm)]-F-E-P—R—S—K-G-[Pen]-K—NH2 [Compound 224] | 2.6 µM |
| Isovaleric Acid-E-T-H-[Dpa]-P—C—I-[Lys(PEG4_PEG4_IsoGlu_C18_Diacid)]-[bhF]-[(D)Lys]-C—NH2 [Compound 237] | > 100 µM |
